According to paper PMC8324300, “CDK1 controls CHMP7-dependent nuclear envelope reformation” (eLife, 2021):

Assays:
Details in all cases: both partners purified
[1] = biological target: T1, CDK1-phosphorylated CHMP7 (human, UniProt Q8WUX9 1-453, phosphoserine at Ser3 and Ser441 (CDK1 sites named by the paper)); assay: co-IP; CHMP7 pre-incubated with CDK1:CyclinB1 with or without 3 mM ATP, then 5 μM CHMP7 with 10 μM HA-LEM2^CT dialysed overnight at 4°C from HiSalt (250 mM KCl) into LoSalt buffer (30 mM HEPES pH 8, 25 mM KCl, 1 mM DTT); CHMP7 captured on anti-CHMP7 Dynabeads
T1 construct: CHMP7, human, full-length open reading frame, phosphorylated in vitro by CDK1:CyclinB1; also called recombinant CHMP7 incubated with CDK1 and CCNB1 in the presence of ATP; source: E. coli BL21(DE3), purified; phosphorylated in vitro with bought CDK1:CyclinB1 complex (Millipore) and 3 mM ATP; not shown: 2xHis6, N-terminal, cleaved; NusA, N-terminal, cleaved
T1 sequence (looked up): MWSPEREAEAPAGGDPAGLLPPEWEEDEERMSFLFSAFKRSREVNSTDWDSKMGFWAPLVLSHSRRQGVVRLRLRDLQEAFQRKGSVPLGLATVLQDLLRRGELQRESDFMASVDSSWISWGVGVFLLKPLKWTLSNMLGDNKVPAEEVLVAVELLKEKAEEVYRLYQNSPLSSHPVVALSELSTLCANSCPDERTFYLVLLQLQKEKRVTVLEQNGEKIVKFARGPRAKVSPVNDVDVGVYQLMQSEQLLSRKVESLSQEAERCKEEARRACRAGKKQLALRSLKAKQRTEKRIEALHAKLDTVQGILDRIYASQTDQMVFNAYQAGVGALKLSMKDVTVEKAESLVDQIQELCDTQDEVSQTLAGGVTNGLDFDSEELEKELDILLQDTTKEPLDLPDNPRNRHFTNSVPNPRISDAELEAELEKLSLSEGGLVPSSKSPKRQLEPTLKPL

[2] = biological target: T2, recombinant CHMP7 S3D/S441D (human, UniProt Q8WUX9 1-453, S3D | S441D); assay: co-sedimentation; 5 μM CHMP7 or mutant with 10 μM HA-LEM2^CT (one legend says equimolar) in TKD buffer (50 mM Tris HCl pH 8, 150 mM KCl, 1 mM DTT), room temperature for 2 hr; 22,000 x g for 40 min at 4°C; blots with anti-CHMP7 and anti-HA
T2 construct: CHMP7, human, full length with phosphomimetic residues at Ser3 and Ser441; source: E. coli BL21(DE3), purified (Ni-NTA, TEV cleavage, Superdex 200); not shown: 2xHis6, N-terminal, cleaved; NusA, N-terminal, cleaved
T2 sequence (looked up): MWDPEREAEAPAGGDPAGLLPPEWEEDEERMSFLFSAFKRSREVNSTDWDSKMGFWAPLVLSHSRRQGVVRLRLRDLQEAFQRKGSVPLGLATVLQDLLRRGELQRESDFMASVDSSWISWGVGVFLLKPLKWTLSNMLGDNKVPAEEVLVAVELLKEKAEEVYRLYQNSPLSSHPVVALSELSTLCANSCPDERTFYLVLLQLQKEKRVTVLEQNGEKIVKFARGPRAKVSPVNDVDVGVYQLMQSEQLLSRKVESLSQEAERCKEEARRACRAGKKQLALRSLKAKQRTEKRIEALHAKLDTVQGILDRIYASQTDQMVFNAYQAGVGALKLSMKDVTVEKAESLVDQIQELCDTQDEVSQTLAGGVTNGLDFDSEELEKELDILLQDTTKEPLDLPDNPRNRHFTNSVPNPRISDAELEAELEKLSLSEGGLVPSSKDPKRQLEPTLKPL

[3] = biological target: T3, recombinant CHMP7 S3E/S441E (human, UniProt Q8WUX9 1-453, S3E | S441E); assay: as above
T3 construct: CHMP7, human, full length with phosphomimetic residues at Ser3 and Ser441; also called CHMP7 S3E/D441E (as printed once in the methods); source: E. coli BL21(DE3), purified (Ni-NTA, TEV cleavage, Superdex 200); not shown: 2xHis6, N-terminal, cleaved; NusA, N-terminal, cleaved
T3 sequence (looked up): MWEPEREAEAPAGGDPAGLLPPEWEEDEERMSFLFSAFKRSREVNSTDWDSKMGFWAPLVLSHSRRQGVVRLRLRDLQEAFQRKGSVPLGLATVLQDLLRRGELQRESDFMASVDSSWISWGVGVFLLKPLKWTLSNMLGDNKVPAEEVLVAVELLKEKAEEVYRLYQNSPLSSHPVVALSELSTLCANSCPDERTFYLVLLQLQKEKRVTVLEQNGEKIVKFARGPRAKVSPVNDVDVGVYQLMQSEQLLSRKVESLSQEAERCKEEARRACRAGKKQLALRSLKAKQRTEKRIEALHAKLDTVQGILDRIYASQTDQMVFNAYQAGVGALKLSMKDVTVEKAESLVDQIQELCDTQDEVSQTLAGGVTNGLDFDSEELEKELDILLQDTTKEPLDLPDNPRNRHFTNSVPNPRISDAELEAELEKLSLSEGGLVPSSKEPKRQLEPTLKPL

[4] = biological target: T4, recombinant CHMP7 (full length, wild type) (human, UniProt Q8WUX9 1-453); assay: co-IP; purified CHMP7 or S3D/S441D with HA-LEM2^CT at 1:2 in TKD buffer, overnight at 4°C; CHMP7 captured on anti-CHMP7 Dynabeads; washes with 0.05% Tween-20; blots with anti-CHMP7 and anti-HA
T4 construct: CHMP7, human, full-length open reading frame; the TEV site cleaves at the 1st methionine; In the CDK1 experiments this is the sample incubated with CDK1:CyclinB1 without ATP; also called CHMP7 wildtype; WT; source: E. coli BL21(DE3), purified (Ni-NTA, TEV cleavage, Superdex 200, monomeric fractions); not shown: 2xHis6, N-terminal, cleaved; NusA, N-terminal, cleaved
T4 sequence (looked up): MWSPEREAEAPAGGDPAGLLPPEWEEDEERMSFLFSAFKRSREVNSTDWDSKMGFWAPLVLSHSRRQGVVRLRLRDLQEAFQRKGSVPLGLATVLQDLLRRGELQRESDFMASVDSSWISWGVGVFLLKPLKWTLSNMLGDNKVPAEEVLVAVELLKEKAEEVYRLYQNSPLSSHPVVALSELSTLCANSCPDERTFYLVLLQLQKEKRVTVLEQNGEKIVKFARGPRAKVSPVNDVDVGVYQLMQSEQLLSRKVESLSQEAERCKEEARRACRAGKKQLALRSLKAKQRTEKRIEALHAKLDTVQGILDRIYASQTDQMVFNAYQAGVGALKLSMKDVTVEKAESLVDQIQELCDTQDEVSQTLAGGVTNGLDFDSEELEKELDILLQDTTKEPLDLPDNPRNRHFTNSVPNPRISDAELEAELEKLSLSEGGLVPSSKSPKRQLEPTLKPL

binding result [1]: binds
binding result [2]: binds
binding result [3]: binds
binding result [4]: binds
B1: recombinant HA-LEM2^CT (LEM2 C-terminal domain 395-503) (domain or fragment, human, UniProt Q8NC56 395-503, looked up)
chain: ILLKYRWRKLEEEEQAMYEMVKKIIDVVQDHYVDWEQDMERYPYVGILHVRDSLIPPQSRRRMKRVWDRAVEFLASNESRIQTESHRVAGEDMLVWRWTKPSSFSDSER
notes: LEM2 (LEMD2), human, codon-optimised synthetic gene, C-terminal domain residues 395-503; also called LEM2's C-terminus; source: E. coli BL21(DE3), purified (Ni-NTA, on-bead TEV cleavage); not shown: 2xHis6, N-terminal, cleaved; NusA, N-terminal, cleaved; HA, N-terminal, kept
